Results taken from US20210122824A1.

Tests used:
Experiment in all cases: flow cytometry, HEK293F cells transiently expressing the target, 100 nM antibody, PE anti-human Fc; Mean (PE-A against FITC-A, GFP surrogate)
[1] = molecular target: human TIM3 expressed on HEK293F cells (human) (UniProt Q8TDQ0)
[2] = molecular target: human PD1 expressed on HEK293F cells (human) (UniProt Q15116)
[3] = molecular target: human LAG3 expressed on HEK293F cells (human) (UniProt P18627)
[4] = molecular target: mouse PD-L1 expressed on HEK293F cells (mouse) (UniProt Q9EP73)
[5] = molecular target: rhesus PD-L1 expressed on HEK293F cells (rhesus) (UniProt F6VEW6)
[6] = molecular target: human PD-L1 expressed on cell surface (human) (UniProt Q9NZQ7)
[7] = molecular target: human B7-H3 expressed on HEK293F cells (human) (UniProt Q5ZPR3)
[8] = molecular target: human CTLA4 expressed on HEK293F cells (human) (UniProt P16410)
human CTLA4 expressed on HEK293F cells (human), sequence (P16410 36-223): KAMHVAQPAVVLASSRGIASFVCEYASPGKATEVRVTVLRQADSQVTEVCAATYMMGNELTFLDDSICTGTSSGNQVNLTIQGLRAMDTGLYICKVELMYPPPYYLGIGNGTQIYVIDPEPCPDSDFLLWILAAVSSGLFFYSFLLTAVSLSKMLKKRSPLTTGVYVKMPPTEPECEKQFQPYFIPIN

human LAG3 expressed on HEK293F cells (human), sequence (P18627 23-525): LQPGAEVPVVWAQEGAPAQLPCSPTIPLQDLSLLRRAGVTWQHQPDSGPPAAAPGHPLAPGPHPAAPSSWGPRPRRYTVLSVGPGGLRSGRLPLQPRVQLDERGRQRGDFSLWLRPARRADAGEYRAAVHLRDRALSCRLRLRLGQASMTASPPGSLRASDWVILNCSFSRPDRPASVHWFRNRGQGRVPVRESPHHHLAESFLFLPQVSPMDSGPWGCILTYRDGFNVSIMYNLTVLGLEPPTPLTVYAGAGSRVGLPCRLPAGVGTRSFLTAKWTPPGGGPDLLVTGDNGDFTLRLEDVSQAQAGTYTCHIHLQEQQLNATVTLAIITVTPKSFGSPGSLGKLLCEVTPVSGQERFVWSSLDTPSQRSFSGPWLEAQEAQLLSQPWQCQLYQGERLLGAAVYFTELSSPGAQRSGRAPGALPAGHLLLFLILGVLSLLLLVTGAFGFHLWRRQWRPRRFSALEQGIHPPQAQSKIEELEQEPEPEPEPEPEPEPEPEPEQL
human B7-H3 expressed on HEK293F cells (human), sequence (Q5ZPR3 29-534): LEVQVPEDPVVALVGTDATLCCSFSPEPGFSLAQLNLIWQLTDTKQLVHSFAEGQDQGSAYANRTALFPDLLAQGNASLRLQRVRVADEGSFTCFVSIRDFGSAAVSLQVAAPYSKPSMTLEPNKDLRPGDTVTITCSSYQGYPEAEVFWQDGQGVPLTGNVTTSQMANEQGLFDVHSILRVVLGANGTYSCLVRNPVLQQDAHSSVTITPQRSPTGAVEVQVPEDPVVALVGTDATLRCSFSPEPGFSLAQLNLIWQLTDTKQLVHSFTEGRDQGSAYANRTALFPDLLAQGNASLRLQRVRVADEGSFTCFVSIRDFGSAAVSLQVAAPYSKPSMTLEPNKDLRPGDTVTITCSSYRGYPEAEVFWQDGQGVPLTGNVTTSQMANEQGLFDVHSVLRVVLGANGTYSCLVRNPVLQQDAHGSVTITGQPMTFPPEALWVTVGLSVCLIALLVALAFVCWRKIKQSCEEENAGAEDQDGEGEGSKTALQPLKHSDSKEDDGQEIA
human PD1 expressed on HEK293F cells (human), sequence (Q15116 25-288): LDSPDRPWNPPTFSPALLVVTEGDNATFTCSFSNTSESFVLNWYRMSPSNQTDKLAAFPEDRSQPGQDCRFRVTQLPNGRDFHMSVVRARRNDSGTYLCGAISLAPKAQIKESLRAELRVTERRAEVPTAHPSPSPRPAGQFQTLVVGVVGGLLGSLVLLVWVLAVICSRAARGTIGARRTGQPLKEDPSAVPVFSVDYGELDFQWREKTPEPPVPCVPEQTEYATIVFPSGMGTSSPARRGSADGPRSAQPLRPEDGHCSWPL
human PD-L1 expressed on cell surface (human), sequence (Q9NZQ7 19-290): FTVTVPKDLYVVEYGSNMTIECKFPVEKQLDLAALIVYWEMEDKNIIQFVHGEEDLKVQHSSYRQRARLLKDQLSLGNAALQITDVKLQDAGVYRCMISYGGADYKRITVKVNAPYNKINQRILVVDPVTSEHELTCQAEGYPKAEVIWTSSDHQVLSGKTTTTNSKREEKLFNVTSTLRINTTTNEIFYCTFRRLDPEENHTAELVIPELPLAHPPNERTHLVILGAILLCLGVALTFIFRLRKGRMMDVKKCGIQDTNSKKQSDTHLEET
mouse PD-L1 expressed on HEK293F cells (mouse), sequence (Q9EP73 19-290): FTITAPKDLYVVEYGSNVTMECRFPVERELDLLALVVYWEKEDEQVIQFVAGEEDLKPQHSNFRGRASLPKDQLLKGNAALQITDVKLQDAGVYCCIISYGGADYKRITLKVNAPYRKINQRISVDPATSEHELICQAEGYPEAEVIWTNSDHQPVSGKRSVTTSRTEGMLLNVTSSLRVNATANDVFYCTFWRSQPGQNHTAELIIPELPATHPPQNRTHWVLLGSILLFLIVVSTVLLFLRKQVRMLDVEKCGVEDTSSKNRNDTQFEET

Isotype control (antibody)
Mean [1]: 2280 | Mean [2]: 3050 | Mean [3]: 2440 | Mean [4]: 3030 | Mean [5]: 2520 | Mean [6]: 2470 | Mean [7]: 2690 | Mean [8]: 2480
